The values that follow come from US20240024519A1, “RADIOPHARMACEUTICAL COMPOSITIONS OF COPPER FOR TARGETED MOLECULAR IMAGING” (Curium US LLC, priority 2022, published 2024).

The data set in a line: Radiochemical purity (RCP) of dose vials over time after formulation, radio-HPLC. Format: physicochemical. Conditions: 10 Ci batches, with and without SPE purification (both formulations); post-formulation, i.e. after end of synthesis. The protocol: Two 10 Ci batches of copper Cu-64 PSMA I&T were prepared, wherein the primary difference between them was removal of the purification step. During purification, a solid phase extraction cartridge was used to purify the product by removing radiolabeling buffer and remaining ^64Cu copper chloride starting material; however, this step requires concentration of the batch activity in a small volume (i.e., <1 mL), which can encourage radiolytic damage and result in detrimental impacts to radiochemical purity (RCP). This phenomenon was observed experimentally when comparing the radiochemical purity of copper Cu-64 PSMA I&T prepared with and without purification (FIG. 2). The removal of the purification step yielded a product with a higher RCP of 98.9% (FIG. 2B) versus 92.4% (FIG. 2A). The difference between the two purity profiles was that the primary radiolytic impurity (tR=16.8′-17.2′) was largely absent in the non-purified product. In both formulations, the RCP of individual dose vials prepared thereof was maintained over a period of 51 h post-formulation (i.e., 51 h after end of synthesis).

For “^64Cu-(3S, 7S, 26R, 29R, 32R, 37R)-29-benzyl-32(4-hydroxy-3-iodobenzyl)-5, 13, 20, 28, 31, 34-hexaoxo-37-(4,7,10-tris(carboxymethyl)-1, 4, 7, 10-tetraazacyclododecan-1-yl)-4, 6, 12, 21, 27, 30, 33-heptaazaheptatriacontane-1, 3, 7, 26, 37-pentacarboxylic acid [Cu-64 PSMA I&T]”, the “period over which RCP of individual dose vials was maintained” value amounted to 51 h.
